Legend:
[1] = biological target: SMAD1 (wild-type, full-length R-SMAD); assay: cell-based or functional assay
[2] = biological target: GAL4 DNA binding domain fused in-frame to full-length SMAD1 (UniProt P04386); assay: cell-based or functional assay

Row | SMAD1-SBE CAT reporter (SMAD1-mediated transcription), maximum reduction [1] [%] | GAL4/UAS-luciferase reporter, caALK6-receptor-mediated trans-activation of SMAD1, maximum inhibition [2] | GAL4/UAS-luciferase reporter, SMAD trans-activation activity at higher amounts of TAK1dn [2] [%] | GAL4/UAS-luciferase reporter, SMAD trans-activation, increase at low concentrations of TAK1dn [2] [%] | Substance
1 | 10 | 40 | – | – | constitutively active TAK1 (TAK1ca) lacking the 22 N-terminal amino acids (from UniProt Q62073 23-579) (enzyme)
2 | – | – | 70 | 35 | dominant-negative TAK1 (TAK1dn) mutant (K63W) (from UniProt Q62073 1-579) (enzyme)

Reference: patent US20070197457A1
